Source: patent publication US20170362317A1 (FOUNTAIN BIOPHARMA, published 2017)
Where a chain is given by its changes, count along the chain named.

Legend:
[1] = target: T1, recombinant human interleukin-6 (IL6) (human, UniProt P05231 30-212); assay: cell-based or functional assay
[2] = target: T1, recombinant human interleukin-6 (IL6); assay: ELISA, plate coated with recombinant human IL6 at 2 µg/ml, FB704 in four-fold serial dilutions from 2 µg/ml, HRP-labeled goat anti-human IgG, A450
Description: (§1) Plates were coated with recombinant human IL3, IL4, IL5, IL6, IL11, IL17A, CNTF, OSM, IGF-1 (R&D Systems), IL2, FGF (Prospec), VEGF, TNF-α, EGF (Peprotech) at 2 μg/ml in 0.1M NaHCO₃ buffer at 4° C. overnight. After being washed by PBS, the wells were blocked with 1% (w/v) BSA in PBS at RT for 1 h. Purified anti-IL6 antibodies in four-fold serial dilutions at a starting concentration of 2 μg/ml were placed into the wells and incubated at RT for 1 h. The plate was washed in PBS containing 0.1% (w/v) Tween 20 and then probed with HRP-labeled goat anti-human IgG (KPL) diluted 1:10,000 in 1% BSA-PBS for 40 min at RT. The plate was again washed and a TMB substrate solution was added to develop color. Stop solution (1M H₂SO₄) was then added and the absorption at 450 nm quantitated using VERSA max (Molecular Devices).
(§2) An ELISA assay as described herein was performed to confirm the binding specificity of high-affinity anti-IL6 antibodies described herein. Briefly, plates were coated with different cytokines as indicated in FIG. 3A (IL6 family cytokines) and FIG. 3B (non-IL6 family cytokines) and the binding activities of the FB704 antibody clone (i.e. Ag1-4-6) to those cytokines were examined.

[3] = target: T1, recombinant human interleukin-6 (IL6); assay: ELISA, plate coated with recombinant human IL6 at 2 µg/ml, FB704 in four-fold serial dilutions from 2 µg/ml, HRP-labeled goat anti-human IgG, A450 [Cont'd) B]
Description: as §1, §2

[4] = target: T2, recombinant human OSM (human, UniProt P13725 26-221, limits assumed); assay: ELISA, plate coated with the cytokine at 2 µg/ml, FB704 in four-fold serial dilutions, HRP-labeled goat anti-human IgG, A450
T2 sequence (looked up): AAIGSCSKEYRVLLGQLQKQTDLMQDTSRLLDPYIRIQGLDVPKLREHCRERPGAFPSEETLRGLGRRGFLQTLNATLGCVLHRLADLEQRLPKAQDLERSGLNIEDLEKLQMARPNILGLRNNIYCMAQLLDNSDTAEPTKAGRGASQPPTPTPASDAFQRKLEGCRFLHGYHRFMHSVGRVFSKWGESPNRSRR
Description: as §1, §2

[5] = target: T3, recombinant human IL5 (human, UniProt P05113 20-134); assay: as above
T3 sequence (looked up): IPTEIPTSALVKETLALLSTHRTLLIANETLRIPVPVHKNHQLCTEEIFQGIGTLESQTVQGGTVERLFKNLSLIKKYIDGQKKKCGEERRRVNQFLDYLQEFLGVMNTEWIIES
Description: as §1, §2

[6] = target: T4, recombinant human IL11 (human, UniProt P20809 22-199); assay: as above
T4 sequence (looked up): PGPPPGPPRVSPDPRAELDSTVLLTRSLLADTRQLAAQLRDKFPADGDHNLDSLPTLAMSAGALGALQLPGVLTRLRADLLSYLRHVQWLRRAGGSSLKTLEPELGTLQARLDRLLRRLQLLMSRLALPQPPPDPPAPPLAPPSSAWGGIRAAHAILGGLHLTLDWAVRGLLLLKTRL
Description: as §1, §2

[7] = target: recombinant human IL2 (human, UniProt P60568 21-153); assay: as above
Chain of recombinant human IL2 (P60568 21-153 limits assumed): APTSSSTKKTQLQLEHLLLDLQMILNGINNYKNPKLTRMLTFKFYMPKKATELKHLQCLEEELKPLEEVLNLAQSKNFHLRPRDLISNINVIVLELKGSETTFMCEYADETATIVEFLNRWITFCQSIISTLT
Description: as §1, §2

[8] = target: T5, recombinant human CNTF (human, UniProt P26441 2-200); assay: as above
T5 sequence (looked up): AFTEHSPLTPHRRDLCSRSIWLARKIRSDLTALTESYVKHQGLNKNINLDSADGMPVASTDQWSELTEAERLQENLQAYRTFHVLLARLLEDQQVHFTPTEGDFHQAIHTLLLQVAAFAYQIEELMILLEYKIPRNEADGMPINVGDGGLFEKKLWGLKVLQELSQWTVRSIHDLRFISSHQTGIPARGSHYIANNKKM
Description: as §1, §2

[9] = target: T6, recombinant human IL17A (human, UniProt Q16552 20-155, limits assumed); assay: as above
T6 sequence (looked up): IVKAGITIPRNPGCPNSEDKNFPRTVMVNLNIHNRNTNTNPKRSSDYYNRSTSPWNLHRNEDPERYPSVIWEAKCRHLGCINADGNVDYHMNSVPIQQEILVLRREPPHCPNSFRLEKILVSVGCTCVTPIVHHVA
Description: as §1, §2

[10] = target: T7, recombinant human IL4 (human, UniProt P05112 25-153); assay: as above
T7 sequence (looked up): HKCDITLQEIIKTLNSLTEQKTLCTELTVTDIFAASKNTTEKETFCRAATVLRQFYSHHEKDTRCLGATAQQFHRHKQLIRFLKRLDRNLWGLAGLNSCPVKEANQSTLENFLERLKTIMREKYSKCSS
Description: as §1, §2

[11] = target: T8, recombinant human IL3 (human, UniProt P08700 20-152); assay: as above
T8 sequence (looked up): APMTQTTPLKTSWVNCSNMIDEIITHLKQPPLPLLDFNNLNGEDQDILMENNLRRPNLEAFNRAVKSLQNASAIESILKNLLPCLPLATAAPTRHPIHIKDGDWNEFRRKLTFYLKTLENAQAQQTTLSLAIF
Description: as §1, §2

[12] = target: T1, recombinant human interleukin-6 (IL6); assay: cell-based or functional assay; remark: listed apart in the source
[13] = target: T1, recombinant human interleukin-6 (IL6); assay: SPR (BIAcore T200), IgG captured by anti-human IgG, IL6 injected at 0.4-25.6 nM
Description: IgG binding affinity was measured by using human antibody capture kit (GE healthcare) in BIAcore T200 system (GE healthcare). The mouse anti-human IgG was immobilized on a CMS sensor chip via amine coupling. Approximately 700 RU of purified anti-IL6 IgG in HBS-EP+ buffer were captured onto the immobilized surface. The recombinant human IL6 (R&D Systems) at concentrations ranging from 25.6 nM to 0.4 nM in HBS-EP+ buffer was injected for 2 minutes using a flow rate of 30 μl/min. Dissociation of bound antigen in HBS⁻EP⁺ buffer flow was followed for 7 minutes. The surfaces IgG were regenerated after each cycle using regeneration solution (3M MgCl₂). The dissociation constant (KD) was calculated as kd/ka.

[14] = target: recombinant human VEGF (human, UniProt P15692-4 27-191, limits assumed); assay: ELISA, plate coated with the cytokine at 2 µg/ml, FB704 in four-fold serial dilutions, HRP-labeled goat anti-human IgG, A450 [Cont'd) B]
Chain of recombinant human VEGF (P15692 other isoform, or with tags, fused parts or gaps limits assumed): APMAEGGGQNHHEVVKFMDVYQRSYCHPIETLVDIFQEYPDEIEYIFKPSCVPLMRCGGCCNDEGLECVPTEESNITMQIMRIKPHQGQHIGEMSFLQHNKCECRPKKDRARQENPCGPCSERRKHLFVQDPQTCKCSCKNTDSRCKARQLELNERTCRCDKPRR
Description: as §1, §2

[15] = target: recombinant human EGF (human, UniProt P01133 971-1023); assay: as above
Chain of recombinant human EGF (P01133 971-1023 limits assumed): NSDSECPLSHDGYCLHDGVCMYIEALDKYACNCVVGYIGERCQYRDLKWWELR
Description: as §1, §2

[16] = target: recombinant human IGF-1 (human, UniProt P05019 49-118); assay: as above
Chain of recombinant human IGF-1 (P05019 49-118 limits assumed): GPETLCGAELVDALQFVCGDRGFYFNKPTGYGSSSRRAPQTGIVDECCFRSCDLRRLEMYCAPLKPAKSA
Description: as §1, §2

[17] = target: recombinant human TNF-α (human, UniProt P01375 77-233); assay: as above
Chain of recombinant human TNF-α (P01375 77-233 limits assumed): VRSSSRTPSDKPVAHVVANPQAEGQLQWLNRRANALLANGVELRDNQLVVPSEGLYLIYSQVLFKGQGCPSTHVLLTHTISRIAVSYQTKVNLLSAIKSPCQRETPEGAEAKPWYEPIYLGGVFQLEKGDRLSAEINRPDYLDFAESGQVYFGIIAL
Description: as §1, §2

B1: Ag1-4-6 (fully human anti-IL6 IgG1 antibody) (antibody, V domains shown)
VH: EVQLVESGPALVKPTQTLTLTCTFSGFSLSTGGMSVSWIRQPPGKALEWLARIDWDDDKFYTPSLKTRLTISRDTSKNQVVLIMTNMDPVDTATYYCARMHIDDSNGYYSDAFHIWGQGTMVTVSS
VL: EIVLTQSPATLSVSPGERVTLSCRDSQSVSSTSLAWYQQKSGQAPRLLIYDTSNRATGIPARFSGGGSGTDFTLTISSLEPEDFAVYYCSFVSRPYPRFTFGQGTKVEIK
notes: also called FB704
inhibition percentage of control of STAT3 phosphorylation in U266 cells, antibody at 0.05 µg/ml [1]: 0% | inhibition percentage of control of STAT3 phosphorylation in U266 cells, antibody at 0.5 µg/ml [1]: 60% | EC50 (read off the curve) [2]: ~0.01 µg/mL | EC50 (read off the curve) [3]: ~0.01 µg/mL | binding result [4]: no binding (tested: 2 µg/ml) | binding result [5]: no binding (tested: 2 µg/ml) | binding result [6]: no binding (tested: 2 µg/ml) | binding result [7]: no binding (tested: 2 µg/ml) | binding result [8]: no binding (tested: 2 µg/ml) | binding result [9]: no binding (tested: 2 µg/ml) | binding result [10]: no binding (tested: 2 µg/ml) | binding result [11]: no binding (tested: 2 µg/ml) | IC50 of inhibition of IL6-dependent B9 cell proliferation (WST-1, 72 h) [12]: 0.0468 µg/mL | Kd [13]: 0.75 nM | koff [13]: 0.00121 s⁻¹ | kon [13]: 1.61e+06 M⁻¹ s⁻¹ | binding result [14]: no binding (tested: 2 µg/ml) | binding result [15]: no binding (tested: 2 µg/ml) | binding result [16]: no binding (tested: 2 µg/ml) | binding result [17]: no binding (tested: 2 µg/ml)

B2: HAg1T-3-10 (fully human anti-IL6 IgG1 antibody) (antibody, V domains shown)
VH: B1 VH with Y109F
VL: B1 VL
notes: also called HAgT1-3-10
inhibition percentage of control of STAT3 phosphorylation in U266 cells, antibody at 0.05 µg/ml [1]: 49% | inhibition percentage of control of STAT3 phosphorylation in U266 cells, antibody at 0.5 µg/ml [1]: 93% | IC50 of inhibition of IL6-dependent B9 cell proliferation (WST-1, 72 h) [12]: 0.00456 µg/mL | Kd [13]: 0.27 nM | koff [13]: 0.0006 s⁻¹ | kon [13]: 2.24e+06 M⁻¹ s⁻¹

B3: 1-4-62 (fully human anti-IL6 IgG1 antibody) (antibody, V domains shown)
VH: B1 VH
VL: B1 VL with S90L, F91V, V92R, S93N, R94N, P95W, Y96P
notes: also called parent clone
inhibition percentage of control of STAT3 phosphorylation in U266 cells, antibody at 0.05 µg/ml [1]: 0% | inhibition percentage of control of STAT3 phosphorylation in U266 cells, antibody at 0.5 µg/ml [1]: 8% | IC50 of inhibition of IL6-dependent B9 cell proliferation (WST-1, 72 h) [12]: 0.618 µg/mL | Kd [13]: 3.85 nM | koff [13]: 0.00166 s⁻¹ | kon [13]: 438000 M⁻¹ s⁻¹
